The results in this text go back to the supplement of paper PMC5998384.

Data set [1] deals with HeLa Kyoto. Put plainly: solubility change mitosis vs G1/S (difference of NP-40 vs SDS log2 ratios) (log2 ratio difference); higher = more soluble in mitosis.
Data set [2] concerns HeLa Kyoto. Briefly: solubility in G1/S (NP-40 vs SDS abundance) (log2 ratio); higher = more soluble. The conditions noted are these: cell cycle stage: G1/S.
Data set [3] deals with HeLa Kyoto. Briefly: thermal stability score vs G1/S (z-score of summed log2 fold changes over temperatures); higher = more thermally stable than in G1/S.
Setting [4] is: cell cycle stage: early G1 (4.5 h after nocodazole release).
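For solubility change mitosis vs G1/S (difference of NP-40 vs SDS log2 ratios) in this document: synchronized HeLa Kyoto cells (double thymidine block for G1/S, nocodazole release for mitosis), protein amounts in NP-40 versus SDS lysates quantified by mass spectrometry, three biological replicates.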
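For solubility in G1/S (NP-40 vs SDS abundance) in this document: HeLa Kyoto cells arrested at G1/S by double thymidine block, proteins quantified by TMT10plex mass spectrometry in mild NP-40 versus SDS extracts, three biological replicates.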
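For thermal stability score vs G1/S (z-score of summed log2 fold changes over temperatures) in this document: synchronized HeLa Kyoto cells, proteins quantified by TMT10plex mass spectrometry, three biological replicates, mitosis taken 0.5 h after nocodazole release, G1/S directly after double thymidine block.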

In the case of MPDZ, in the data set with HeLa Kyoto [1], the “solubility change mitosis (log2)” value amounted to 0.0126. Besides, the “solubility in G1/S (log2)” value with HeLa Kyoto [2] was -0.0106. In addition, the thermal stability score in the data set with HeLa Kyoto [3] (setting [4]) stood at 0.637; in the data set with HeLa Kyoto [3] (cell cycle stage: mitosis) it was 0.641.

With “MSSEMLPAFIETSNVDKKQGINEDQEESQKPRLGEGCEPISKRQMKKLIKQKQWEEQRELRKQKRKEKRKRKKLERQCQMEPNSDGHDRKRVRRDVVHSTLRLIIDCSFDHLMVLKDIKKLHKQIQRCYAENRRALHPVQFYLTSHGGQLKKNMDENDKGWVNWKDIHIKPEHYSELIKKEDLIYLTSDSPNILKELDESKAYVIGGLVDHNHHKGLTYKQASDYGINHAQLPLGNFVKMNSRKVLAVNHVFEIILEYLETRDWQEAFFTILPQRKGAVPTDKACESASHDNQSVRMEEGGSDSDSSEEEYSRNELDSPHEEKQDKENHTESTVNSLPH [TRMT10A]”, the “solubility change mitosis (log2)” value in the data set with HeLa Kyoto [1] was -0.0488. In the data set on HeLa Kyoto [2], the “solubility in G1/S (log2)” value was -0.0218. For the same substance, the thermal stability score in the data set on HeLa Kyoto [3] (setting [4]) came to 0.883; with HeLa Kyoto [3] (cell cycle stage: mitosis) it was 0.552.

As for “MKAGATSMWASCCGLLNEVMGTGAVRGQQSAFAGATGPFRFTPNPEFSTYPPAATEGPNIVCKACGLSFSVFRKKHVCCDCKKDFCSVCSVLQENLRRCSTCHLLQETAFQRPQLMRLKVKDLRQYLILRNIPIDTCREKEDLVDLVLCHHGLGSEDDMDTSSLNSSRSQTSSFFTRSFFSNYTAPSATMSSFQGELMDGDQTSRSGVPAQVQSEITSANTEDDDDDDDEDDDDEEENAEDRNPGLSKERVRASLSDLSSLDDVEGMSVRQLKEILARNFVNYSGCCEKWELVEKVNRLYKENEENQKSYGERLQLQDEEDDSLCRICMDAVIDCVLLECGHMVTCTKCGKRMSECPICRQYVVRAVHVFKS [RNF34]”, the “solubility change mitosis (log2)” value with HeLa Kyoto [1] is -0.0561. In addition, the “solubility in G1/S (log2)” value in the data set with HeLa Kyoto [2] was found to be 0.0303. Moreover, the thermal stability score turned out to be 0.687 in the data set with HeLa Kyoto [3] (setting [4]) and 0.834 with HeLa Kyoto [3] (cell cycle stage: mitosis).

On to MPV17L2, for which the “solubility change mitosis (log2)” value with HeLa Kyoto [1] is -0.154. The “solubility in G1/S (log2)” value with HeLa Kyoto [2] was -0.0909. Further, the thermal stability score with HeLa Kyoto [3] (setting [4]) is -0.139; in the data set with HeLa Kyoto [3] (cell cycle stage: mitosis) it was -0.811.

Take “MDSSAVITQISKEEARGPLRGKGDQKSAASQKPRSRGILHSLFCCVCRDDGEALPAHSGAPLLVEENGAIPKQTPVQYLLPEAKAQDSDKICVVIDLDETLVHSSFKPVNNADFIIPVEIDGVVHQVYVLKRPHVDEFLQRMGELFECVLFTASLAKYADPVADLLDKWGAFRARLFRESCVFHRGNYVKDLSRLGRDLRRVLILDNSPASYVFHPDNAVPVASWFDNMSDTELHDLLPFFEQLSRVDDVYSVLRQPRPGS [CTDSP1]”: the “solubility change mitosis (log2)” value in the data set with HeLa Kyoto [1] was -0.0207. The “solubility in G1/S (log2)” value in the data set with HeLa Kyoto [2] is -0.148. Besides, the thermal stability score in the data set on HeLa Kyoto [3] (setting [4]) came out at 0.748; in the data set with HeLa Kyoto [3] (cell cycle stage: mitosis), 0.982.

For “MGFNLTFHLSYKFRLLLLLTLCLTVVGWATSNYFVGAIQEIPKAKEFMANFHKTLILGKGKTLTNEASTKKVELDNCPSVSPYLRGQSKLIFKPDLTLEEVQAENPKVSRGRYRPQECKALQRVAILVPHRNREKHLMYLLEHLHPFLQRQQLDYGIYVIHQAEGKKFNRAKLLNVGYLEALKEENWDCFIFHDVDLVPENDFNLYKCEEHPKHLVVGRNSTGYRLRYSGYFGGVTALSREQFFKVNGFSNNYWGWGGEDDDLRLRVELQRMKISRPLPEVGKYTMVFHTRDKGNEVNAERMKLLHQVSRVWRTDGLSSCSYKLVSVEHNPLYINITVDFWFGA [B4GALT4]”, the “solubility change mitosis (log2)” value with HeLa Kyoto [1] was -0.14. For the same substance, in the data set on HeLa Kyoto [2], the “solubility in G1/S (log2)” value was found to be 0.167. In addition, the thermal stability score with HeLa Kyoto [3] (setting [4]) is -0.773; with HeLa Kyoto [3] (cell cycle stage: mitosis), -0.781.

As to “MDLDVVNMFVIAGGTLAIPILAFVASFLLWPSALIRIYYWYWRRTLGMQVRYVHHEDYQFCYSFRGRPGHKPSILMLHGFSAHKDMWLSVVKFLPKNLHLVCVDMPGHEGTTRSSLDDLSIDGQVKRIHQFVECLKLNKKPFHLVGTSMGGQVAGVYAAYYPSDVSSLCLVCPAGLQYSTDNQFVQRLKELQGSAAVEKIPLIPSTPEEMSEMLQLCSYVRFKVPQQILQGLVDVRIPHNNFYRKLFLEIVSEKSRYSLHQNMDKIKVPTQIIWGKQDQVLDVSGADMLAKSIANCQVELLENCGHSVVMERPRKTAKLIIDFLASVHNTDNNKKLD [ABHD6]”, the “solubility change mitosis (log2)” value with HeLa Kyoto [1] is -0.0832. The “solubility in G1/S (log2)” value in the data set on HeLa Kyoto [2] is -0.209. Also, the thermal stability score is 0.51 with HeLa Kyoto [3] (setting [4]) and -0.118 with HeLa Kyoto [3] (cell cycle stage: mitosis).

Regarding “MAPARLFALLLFFVGGVAESIRETEVIDPQDLLEGRYFSGALPDDEDVVGPGQESDDFELSGSGDLDDLEDSMIGPEVVHPLVPLDNHIPERAGSGSQVPTEPKKLEENEVIPKRISPVEESEDVSNKVSMSSTVQGSNIFERTEVLAALIVGGIVGILFAVFLILLLMYRMKKKDEGSYDLGKKPIYKKAPTNEFYA [SDC4]”, the “solubility change mitosis (log2)” value in the data set on HeLa Kyoto [1] was 0.235. Also, the “solubility in G1/S (log2)” value in the data set on HeLa Kyoto [2] is -0.523. Also, the thermal stability score with HeLa Kyoto [3] (setting [4]) turned out to be 2.66; with HeLa Kyoto [3] (cell cycle stage: mitosis), 4.92.
